Assay results as given in patent publication US20150232562A1 (Ablynx, published 2015).
Residue numbers refer to the chain shown, from its start.

B1: 2E5 (VHH)
VHH: EVQLVESGGSLVQPGESLRLSCAASGFTFDDYAMSWVRQAPGKGLEWISSINWSGTHTDYADSVKGRFTISRNNANNTLYLQMNNLKFEDTAVYYCAKNWRDAGTTWFEKSGSAGQGTQVTVSS
notes: C-term myc-His6 tag
B2: 27B1 (VHH)
VHH: B1 VHH with E16G
notes: C-term myc-His6 tag
B3: 39C1 (VHH)
VHH: B1 VHH with Q13P, E16G, A33G, I48V, A61T, N85S, F88S, R101G
notes: C-term myc-His6 tag
B4: 5F8 (VHH)
VHH: B1 VHH with E16G, M34L
notes: C-term myc-His6 tag
B5: 13B2 (VHH)
VHH: B1 VHH with E16G, T58K
notes: C-term myc-His6 tag
B6: 13D8 (VHH)
VHH: B1 VHH with E16G, S35T, P41S, I48V, A61T, N85S, F88S, R101G
notes: C-term myc-His6 tag
B7: 17E2 (VHH)
VHH: B1 VHH with Q13P, E16G, A33G, I48V, A61T, N85S, F88S, R101G
notes: C-term myc-His6 tag
B8: 17E7 (VHH)
VHH: B1 VHH with E16G, A40V, I48V, N85S, F88S
notes: C-term myc-His6 tag
B9: 17G8 (VHH)
VHH: B1 VHH with Q13P, E16G, I48V, D59G, A61T, N85S, F88S, R101G
notes: C-term myc-His6 tag
B10: 29H1 (VHH)
VHH: B1 VHH with Q13P, E16G, I48V, D59G, A61T, N85S, F88S, R101G
notes: C-term myc-His6 tag
B11: 27G2 (VHH)
VHH: B1 VHH with E16G, S35T, A40T, I48V, A61T, N85S, F88S, E89D, R101G, Q116P
notes: C-term myc-His6 tag
B12: 17E10 (VHH)
VHH: B1 VHH with E16G, S35T, I48V, Y60C, A61T, N85S, F88S, R101G
notes: C-term myc-His6 tag
B13: 17D8 (VHH)
VHH: B1 VHH with Q13P, E16G, A24V, I48V, A61T, T78M, N85S, F88S
notes: C-term myc-His6 tag
B14: 27D4 (VHH)
VHH: B1 VHH with E16G, S35T, P41S, I48V, N85S, F88S, R101G
notes: C-term myc-His6 tag
B15: 30E10 (VHH)
VHH: B1 VHH with E1K, Q13P, E16G, S35T, I48V, A61T, N85S, F88S, R101G
notes: C-term myc-His6 tag
B16: 15G1 (VHH)
VHH: B1 VHH with Q13P, E16G, I48V, A61T, N85S, F88S
notes: C-term myc-His6 tag
B17: 15F9 (VHH)
VHH: B1 VHH with E16G, S35T, I48V, A61T, D62G, N85S, F88S, E89D, R101G
notes: C-term myc-His6 tag
B18: 2E2 (VHH)
VHH: EVQLVESGGGLVQPGGSLRLSCVASGFSLDDYGMTWVRQAPGKGLEWVSSINWSGTHTDYADSVKGRFTISRDNAKNTLFLQMNSLTPEDTAVYYCNQGWKIIPTDRRGHGTQVTVSS
notes: C-term myc-His6 tag
B19: 13D11 (VHH)
VHH: B18 VHH with Q13H, A24G, Q39R, T87N, N97G, I103V, D106N, R107P
notes: C-term myc-His6 tag
B20: 13D2 (VHH)
VHH: B18 VHH with S85N, T87R, P88S, Y95S, I103V, R108G
notes: C-term myc-His6 tag
B21: 118N121_B8_1_OK/1-135 (VHH)
VHH: EVQLVESGGGLVQDGGSLRLSCAASGQLANFASYAMGWFRQAPGKAREFVAAIRGSGGSTYIADPARSTYYADFVKGRFTISRDNAKNTVYLQMNSLKPEDTAVYYCACETFNSISNLPGEYDYWGQGTQVTVSS
notes: C-term myc-His6 tag
B22: 118N121_B3_1_OK/1-123 (VHH)
VHH: EVQLVESGGGLVQPGGSLRLSCAASGRTFSDLALGWFRRAPGKEREHVAAISSSGVTTIYADSVRGRFTISRDEAKNTVYLEMNSLKTDDTAVYYCAARLTMATPNQSQYYYWGQGTQVTVSS
notes: C-term myc-His6 tag
B23: 118N121_A7_1_OK/1-122 (VHH)
VHH: EVQLVESGGGLVQPGGSLRLSCAASGNIKSIDVMGWHRQAPGKERELVSDISFGGNTNYANSVKGRFTISRDNAKNTVYLQMNSLKPEDTAVYYCYADILYKTDIYYRNDFWGQGTQVTVSS
notes: C-term myc-His6 tag
B24: 118N121_B7_4_OK/1-124 (VHH)
VHH: EVQLVESGGGLEQAGGSLRLSCAASGLTFRSAAMGWFRQGPGKEREFVAAISRDGAATYYTDSVKGRFTISRDNAKNTVFLQMNSLKPEDTAIYYCAADFRLARLRVADDYDYWGQGTQVTVSS
notes: C-term myc-His6 tag
B25: 118N121_A8_2_OK/1-124 (VHH)
VHH: EVQLVESGGGLVQAGGSLTLSCVISGLTLESHAMGWFRQAPGEEREFVATIRWSGSATFYSDSVKGRFTISRDNAKNTVYLQMNSLKPEDTAVYYCAARKIYRSLSYYGDYDSWGQGTQVTVSS
notes: C-term myc-His6 tag
B26: 118N121_A10_1_OK/1-131 (VHH)
VHH: EVQLVESGGGLVQAGGSLRLSCAASGFSFADYAIGWFRQAPGKEREGVSCIANSEGTKYYADSAQGRLPISSDNAKKTVYLQMDSLKPEDTAVYYCAALPYTICPVVVKKGAVYYGVDDYWGKGTQVTVSS
notes: C-term myc-His6 tag
B27: 118N121_A5_2_OK/1-114 (VHH)
VHH: EVQLVESGGGSVQPGGSLRLSCVASGSISSTNAMGWHRQVSGKERELVAIVTDGFTNYADFAKGRFTISRDNAKTTVYLQMNSLQPEDTARYYCRYSGIGTDNWGQGIEVTVSS
notes: C-term myc-His6 tag
B28: 118N121_A9_2_OK/1-114 (VHH)
VHH: B27 VHH with T31V, S41P, E44Q
notes: C-term myc-His6 tag
B29: 118N121_B2_1_OK/1-130 (VHH)
VHH: EVQLVESGGGLVQAGGSLRLSCAASGFSLDDRAIAWFRQAPGKAREGVSCITPHHGGIIFTRESVKGRFATSSDSAKNTVYLQMHSLKPEDTAVYYCATLRTDYSINWANCQRDSLYGYWGQGTQVTVSS
notes: C-term myc-His6 tag
B30: 118N121_A11_1_OK/1-120 (VHH)
VHH: EVQLVESGGGLVQPGGSLRLSCAASGFPFGMYGMRWVRQAPGKGPERVSSINSDGDTTYYADSVKGRFTISRDNDENMLYLQMNSLKPEDTAVYYCATGFSDRSFAVTHKGQGTQVTVSS
notes: C-term myc-His6 tag
B31: 118N121_B7_1_OK/1-119 (VHH)
VHH: EMQLVESGGGLVQPGGSLRLSCAASGNIPPINAMAWYRQAPGNERELVAAVTSGGGTNYATSVKGRFIISRDDSKNTVDLQMNSLKPEDTAVYYCNLGGWTRTHPFDYWGQGTQVTVSS
notes: C-term myc-His6 tag
B32: 118N121_A2_2_OK/1-124 (VHH)
VHH: KVQLVESGGGLVQAGGSLRLSCAASGRTFSNYSVGWFRQAPGKEREFVAALSKDGARTYYAASVKGRFTIYRDNAKNVVYLQMSVLNGEDTAVYYCAADHFTFMSNLPSEYDYWGQGTQVTVSS
notes: C-term myc-His6 tag

Biological target: T1, Epidermal Growth Factor Receptor 2 (HER2) (human, UniProt P04626 23-1255)
T1 construct: whole, on cells; the cell line is named under assay; also called ErbB-2; ERBB2
Test: FMAT competition on SKBR3 cells, periplasmic extract

Row | Binder | % blocking of Herceptin binding [%]
1 | B1 | > 90
2 | B2 | > 90
3 | B3 | > 90
4 | B4 | > 90
5 | B5 | > 90
6 | B6 | > 90
7 | B7 | > 90
8 | B8 | > 90
9 | B9 | > 90
10 | B10 | > 90
11 | B11 | > 90
12 | B12 | > 90
13 | B13 | > 90
14 | B14 | > 90
15 | B15 | > 90
16 | B16 | > 90
17 | B17 | > 90
18 | B18 | > 90
19 | B19 | > 90
20 | B20 | > 90

Biological target: T2, recombinant human ErbB2/Fc chimera (human, UniProt P04626 23-652)
T2 construct: bought from R&D Systems; also called rhErbB2-Fc; rhErb2-Fc; Fc part of the bought chimera not given; not described
Test: ELISA, coated ErbB2/Fc

Row | Binder | binding result
21 | B21 | binds
22 | B22 | binds
23 | B23 | binds
24 | B24 | binds
25 | B25 | binds
26 | B26 | binds
27 | B27 | binds
28 | B28 | binds
29 | B29 | binds
30 | B30 | binds
31 | B31 | binds
32 | B32 | binds
